Results as given in the DeepSol protein solubility set.

Assay: soluble on expression in E. coli; label from the status in PepcDB or PDB records
For “MSLGRGMQKQRFCLDTSAFTEPSVRKALGVKTVTELTDKVMDLIAEARIKLNISCHIPYPTVYNELMGFLENENCPRDVIVKVDTWLVKKTPNRYEIKIPSEIFYEYVKDLRERINKGMRIGEEHIIKATDMVYELSKKHPEMGKNEIINKVLSKTINTFRNKYRSALRVGTLDSAPDLDVLLLAKELDAAVVASDGGIEKWAQRLGLRFVDASDFPFMLEEYLKHNDRHLRIKYEGHHHHHH”, the “soluble on expression in E. coli” value was “soluble”.
For “MSLTILELTFATNQLTTTFFNHKLEPLHQKTFPFEALTIEETVPELCQLILAEAAPILGGIVADFPADFFSPEETLALVPQAVIQAFAEQLNTPLLTAAEQAAAPNLLEAFEEKRQYLAWHLDYYGYVPGKNEYAVESLLTVGNGFLGLRGTTPEMTISDDHYPATYIAGLYNTAASEVAGQVVENEDFVNAPDNQHIALKIGDATDWLTISPDTLQQLHRQLNLKTGLFVAEMILKDADNQQIKLTTKKIANMAQPNDYHLQYTFEPLNFSAPITLKTVTDGSVYNYNVARYRNLTAKHFQVTALSAQENKTVIEVCTNQSNLSVRETSLITGDFFEKEAITIQEEAEKIAQVVTVMAHQGTRYTLEKQVFVQASHAEQSWQVPFTPKDSFAAAAQESARAWQTLWQQANITVTGDLMSQKLLRIHSYHLLASASPFSNQAQALDVSITARGLHGEAYRGHIFWDEIFILPFYIQHYPDTAKQLLLYRYHRLEKAKENAAASQYRGAMYPWQSGRDGRETTQKLHLNPLNGHWGEDHSILQRHVSLAIAYNAWLYWHSTQDHEFMKQYGGEMLLEIAQFWNSAATLDDATGRFFIDKVMGPDEFHEGYPDQAESGLKNNAYTNLMVVWLFEELTNILALFSEEEQAQLFAKTQTTSADLARMQQIQNSLEIEVNSDGIIAQYEGYFGLKEIDWTAMKEKYGNIYRMDRILKAEGESPDDYKVAKQADTLMLFYNLDKTRVDQILEDLGYQLPADYLEKNLLYYLKRTSHGSTLSRIVHAQLAEMAQFHELSWQLYQEALYSDYRDIQGGTTAEGIHTGVMAATIHVTLATYAGVDTRQNELSICPNLPEHWQALAFQFIHQGVTYQFSLTQTSVTITADRDTQLLVQGALIPLTAERPKEVHYQEGHHHHHH”, the “soluble on expression in E. coli” value was “soluble”.
For “MSLKQLVVKIETDNGIIGWGEAQSPVSPNTTATIIKDIVEPLTIGKDIYDVESIWHNNYSAKRERGHYTGFYIDAICGVDIAIWDAIGKSLKMPTCKAMGGAHRKSVALYNGIGGTEPEEVADQAEWSVSKGYKFVKMHLKETLEKDIEIARKVRERVGDSIGIMIDVHMGFDTFNVTKLGKELEKLNLLWLESPSDPTDIPGLCEISRSLDIPIANGEWTRTKYEMREIFEKRAYDISMPDIARTGLTGGKQIASIAQLYNIPIAPHVGGGGIVSVASTLQFSLNTPNFLIMEHSEQGHAVKAMILSESFDAENGQYSLPNKPGLGIDVDENKLEKYKINPSEGHHHHHH”, the “soluble on expression in E. coli” value was “soluble”.
With “MGSDKIHHHHHHMDSKSNSELARLEQAARAAWLYYVAKNTQDEIAQKLEVSRQSAQRLVALAVSEGLIKVRLDHPIVKCMELGQQLTQAFNLLECEIVPSDPADDSSVHGLAQCGAGVLERYLKSEQPKTLAFGTGRALKACIDELPSMQCPQHKIVSLLGNMMLDGSASAFDIVVSMANRVQAKHYPMPLPVIATSVAEKQLLHDLAPVKSIFELVIQADATFVGIGHMGAESPLLLDGFINQSQLTELINDNATGEIISWVYNQQGQLLDHSINELVMSSPLRIDSNKPVYGIAAGQHKVDAIFSALQGRLINSLITNEYTAERILAKLK” the “soluble on expression in E. coli” value was “not soluble”.
In the case of “MGSDKIHHHHHHMRVLPFLLPLIPVLLATTITDLPELVVVTVATENTDGLKRLLESAKAFDINIEVLGLGEKWNGGDTRIEQGGGQKIRILSDWIEKYKDASDTMIMFVDAYDVVFNADSTTILRKFFEHYSEKRLLFGAEPFCWPDQSLAPEYPIVEFGKRFLNSGLFMGYGPEMHKILKLKSVEDKDDDQLYYTMIYLDEKLRKELNMDLDSMSKIFQNLNGVIEDVELQFKEDGTPEAYNAAYNTKPLIVHGNGPSKSHLNYLGNYLGNRWNSQLGCRTCGLEVKESEEVPLIALNLFISKPIPFIEEVLQKIAEFDYPKEKIALYIYNNQPFSIKNIQDFLQKHGKSYYTKRVINGVTEIGDREARNEAIEWNKARNVEFAFLMDGDAYFSEPKVIKDLIQYSKTYDVGIIAPMIGQPGKLFTNFWGAIAANGYYARSEDYMAIVKGNRVGYWNVPFITSAVLFNKEKLEAMKDAYSYNKNLDPDMSMCKFARDNGHFLYIDNEKYYGFLIVSDEYAETVTEGKWHPEMWQIFENRELWEARYIHPGYHKIMEPEHVVDQACPDVYDFPLMSERFCEELIEEMEGFGRWSDGSNNDKRLAGGYENVPTRDIHMNQVGFERQWLYFMDTYVRPVQEKTFIGYYHQPVESNMMFVVRYKPEEQPSLRPHHDASTFSIDIALNKKGRDYEGGGVRYIRYNCTVPADEVGYAMMFPGRLTHLHEGLATTKGTRYIMVSFINP”, the “soluble on expression in E. coli” value is reported as “not soluble”.
With “MIDVFDGQVTTRIALQLLALLAQRPGELRHAKWSEFDEADKVWAIPAGKMKMRRDHFVPLADQAITLLNELRPLTGESEYLFPSLRSWHRPMSENTMNAALRRMGYSGDEMTAHGFRATFSTLANESGLWNPDAIERALAHEERNELEHHHHHH” the “soluble on expression in E. coli” value was “not soluble”.
For “MLDSYPGHFLPNTEAPTEEEALIALLALGGYDPDNMDGKPLTMESAVEILRKDGSALASLEEETILNLKETYVNSVGLLGKYVPKVYNGDILFFRSTVIPDWFDPISPNTWLNYLDGQIVQHDIDCRHKDLCQPGPLTEIGQVLAKYLQNKKGVSRV”, the “soluble on expression in E. coli” value was “not soluble”.
With “MDYRVIKENDVFLLTDQDGNIPEHHPYGLGLYTKDTRFLSKWSLRINGEEPVLLASDAAQNYVATILLTNPHIERDGELILWRESVEIERKRFIYAGVLYETIKLKNYHPKPVQLEISVHMDADFADMFIVRGFQTGEVGKRTGQTIGKRSLTFHYEGADGVERATKVSWDREEKTVKEHGEIVFDFALDRAEEQTVTLMVEPITGKTGRVEVIPPEQALQRLQESYQRWEGETANVITDERQFERLVRRGIGDLRVLLTDLGCGPFPVAGLPWFGVPFGRDSLIAALQLLPFNHEIAKGTLLTMARYQGTKVDPWRDEQPGKIMHEIRFGELANTNQIPFTPYYGTIDATPLFLVLLVEYVKWTGNFDLVRQLRSNIDAALHWIDRYGDRDGDLFVEYFQESSKGIANQGWKDSGDSIVHENGEYARAPIALVEVQGYVYHAKMGLADIFEQLQEVEKAEALRTQAEALKKRFEEQFWMEDRKFYALALDENKAPVRTITSNPGHVLFSGMLEGRRADAVIDTLLSEKMFSGYGIRTMGEGEAGYNPMSYHNGSIWPHDNSLILLGLSKLGRRREAKTVIEGLMEASMHFEYDRLPELFCGYSRSEGKPVRYPVACSPQAWAAGTPLVFVQALLGLFPNALEKNIYLSPTLLDSMNMLRVENILIGGGRLSLTVTREQDNFHVQIDENTTGWDIVLR” the “soluble on expression in E. coli” value was “not soluble”.
With “MRVFYDKDCDLSIIQGKKVAIIGYGSQGHAHACNLKDSGVDVTVGLRSGSATVAKAEAHGLKVADVKTAVAAADVVMILTPDEFQGRLYKEEIEPNLKKGATLAFAHGFSIHYNQVVPRADLDVIMIAPKAPGHTVRSEFVKGGGIPDLIAIYQDASGNAKNVALSYACGVGGGRTGIIETTFKDETETDLFGEQAVLCGGCVELVKAGFETLVEAGYAPEMAYFECLHELKLIVDLMYEGGIANMNYSISNNAEYGEYVTGPEVINAESRAAMRNALKRIQDGEYAKMFITEGAANYPSMTAYRRNNAAHPIEQIGEKLRAMMPWIAANKIVDKSKN” the “soluble on expression in E. coli” value was “soluble”.
For “MCGIVGFIGEQDAKEILLKGLEKLEYRGYDSAGIAVQAENGVVVYKEKGRIAKLREIVDENVAASVGIGHTRWATHGVPSKVNAHPHQSTSKRFTLVHNGVIENYELVKKEYLQDVTFVSETDTEVIVQLMEQQVSTGLSVEEAFRNTLSLLHGSYAIGLLDAENPNMIYVAKNKSPLLVGVGDNFNVVASDAMAMLQVTDQFIELMDKEIVIVMKESITIKNLQGETIERAPFTAELDASDIEKGTYPHFMLKEIDEQPLVIRNIIQKYQDENGEIELDQDIRNAILDSDRIYIIACGTSYHAGLVGKQFIEKFAKMPVEVHVASEFSYNMPLLTERPFFIYISQSGETADSRAVLVQTNEMGHKALTITNVPGSTLSREADYTLPLYAGPEIAVASTKAYTAQLAVLSILAADIAKAKGEVLGFDLTHELGLVANAMIELCDQKEEMDALAKQFLATTRNCFFIGRSVDFYVGLEGALKLKEISYIQAEGFAGGELKHGTIALIENGTPVIALATQEHVNLGIRGNVKEVVARGANPCIISMKGLEMEGDSFVLPAVHEALAPLVAVIPLQLISYYAALHRECDVDKPRNLAKSVTVE”, the “soluble on expression in E. coli” value was “not soluble”.
For “MREDVPRAVTTICSALQEQIEHGLLPHGSKLPAERKLSEVFDTTRITLREALLQLEAQGLIYREERRGWFISPPRLAYDLIRRSHFHAMVCAQGRVAHTQLLSARLQPASAMICEMLELPALSSVIQICRARRIDQRLVLYVEHYLRPELFPGILDHDLNESLIELYARCYDVHYGPVRFDVVPTALHADAAAALKVSLGSPGLRIARVNYDRKDRLIDCDLEYWRHDAIHVRAMVRDN”, the “soluble on expression in E. coli” value was “not soluble”.
For “MFRRPDDDDDDYSGRKVIKPKPIAEKYAKKLGSEFSTGKTFVTGSDKSQKDFYGSQQVRNDVMKSSDSGGAPLTEDEKNKLSAKILKAEMKGDTDLVKKLKRKLESGISGDDEPPKSKSKEVTMMRRDREGNILPASSRRSDSDRHGEGSSRMRREYEKSQDLDSMVREEKTGTAGDQLRLFERSLIKSSKIRRHDDESVDDIAEMQKGKKKSDEKDKKRKEKESIKEHKRIERSFDDCSRCIDSSRLKKHNIIAVGINTYLAVVEWDGLDDEHLIIVPTQHCSSTIQLDENVWDEMRLWRKGLVAVWKSQNRDCIFFEMSRHVDSNPHVFIECVPVEQEIGDMASIYFKKAINECEGEYMDNKKLIETKDLRRQIPKGFSYFAVDFGLSNGFAHVIESHDHFPSTFATEIIAGMLDLPPKKWRKRETDEMSKQKSRAENFKKLWEPVDWTKRLKNDSTK”, the “soluble on expression in E. coli” value was “soluble”.
With “MQVDINVNVVEKPTGAIMFGAGYSDREGIILNGSIAQNNILGTGNFLSLQVNTGSVNKVISASFNNPYYTINGVSLGLEAFKRDINTRSLSSVGMFNTDTTGANIRFGIPVAENDIVSLGLGYEHTKIDLRDDSPQRFKDFVDQFGKTSNNLPITLSWARDRRNSAIWTTSGMTQRLFGEFGLPFGDLNYYKVSYEQRWFFPVTKMFTLMLNGEVGVGDGYSDKPLPFFKNFFAGGFNSVRGYNINTLGPRDSDDRVLGGSKRIVGNIEVLFPVPFMKEDKSVRLSAFADGGTIVNSFSGLGFDDFRYSAGLAATWISPMGPLKFSVAQPLNNQSGDKLQRFQFQFGQTFLEHHHHHH” the “soluble on expression in E. coli” value was “not soluble”.
With “MGSDKIHHHHHHMTSAYCTVLSKGRLYQAVALFKSLEQVDQDSPIFILCMDEDTHRVLQKLKMKQLNLVPVAALENELLLKLKETRDQSEYCWTMKPIFLQAVLNSNPELERVTYIDGDLFFYADPSPIFENQPDCSVLLSRGDIVIPSFEKEQIDMLQRLLGRYNSGFISFKHDDAGTDCLEWWKERCLEECKNAPGEGKFGDQGYLDYMSELFPNVCDITTPGVNIGHWNYGQHTFSWKDGRIVLEDGSPLIFYHFSGYRIVSINEIKQIHETTRTDLPFVHELYQETLPHIIQHMQTLDPEFNGFASKDDNK” the “soluble on expression in E. coli” value was “not soluble”.
With “MSLSLLVIGSLAFDDIETPFGRSDNTLGGSSTYIALSASYFTDEPIRMVGVVGSDFGKEHFDLLHAKNIDTRGIQVIEDGKTFRWAGRYHYDMNTRDTLDTQLNVFAEFDPHVPQYYRDSKFVCLGNIDPELQLKVLDQIDDPKLVVCDTMNFWIEGKPEELKKVLARVDVFIVNDSEARLLSGDPNLVKTARIIREMGPKTLIIKKGEHGALLFTDNGIFAAPAFPLESIYDPTGAGDTFAGGFIGHLARCGNTSEAEMRKAVLYGSAMASFCVEQFGPYRYNDLDLLEVDDRYQSFLELSRIEEGHHHHHH” the “soluble on expression in E. coli” value was “soluble”.
